Here are results for 2 molecules from EP1947117A2 (THE UNITED STATES GOVERNMENT as represented by THE …, dated 2008).

Assay [1] addresses human TSH receptor on CHO cells (CHO-hTSHR clone JP09) (human, UniProt P16473 21-764). Briefly: cell-based or functional assay.
Assay [2] deals with hCG receptor on MA-10 cells (transformed murine Leydig cells) (murine, UniProt P30730 27-700). Briefly: cell-based or functional assay.
Sequence of hCG receptor on MA-10 cells (transformed murine Leydig cells) (P30730 27-700): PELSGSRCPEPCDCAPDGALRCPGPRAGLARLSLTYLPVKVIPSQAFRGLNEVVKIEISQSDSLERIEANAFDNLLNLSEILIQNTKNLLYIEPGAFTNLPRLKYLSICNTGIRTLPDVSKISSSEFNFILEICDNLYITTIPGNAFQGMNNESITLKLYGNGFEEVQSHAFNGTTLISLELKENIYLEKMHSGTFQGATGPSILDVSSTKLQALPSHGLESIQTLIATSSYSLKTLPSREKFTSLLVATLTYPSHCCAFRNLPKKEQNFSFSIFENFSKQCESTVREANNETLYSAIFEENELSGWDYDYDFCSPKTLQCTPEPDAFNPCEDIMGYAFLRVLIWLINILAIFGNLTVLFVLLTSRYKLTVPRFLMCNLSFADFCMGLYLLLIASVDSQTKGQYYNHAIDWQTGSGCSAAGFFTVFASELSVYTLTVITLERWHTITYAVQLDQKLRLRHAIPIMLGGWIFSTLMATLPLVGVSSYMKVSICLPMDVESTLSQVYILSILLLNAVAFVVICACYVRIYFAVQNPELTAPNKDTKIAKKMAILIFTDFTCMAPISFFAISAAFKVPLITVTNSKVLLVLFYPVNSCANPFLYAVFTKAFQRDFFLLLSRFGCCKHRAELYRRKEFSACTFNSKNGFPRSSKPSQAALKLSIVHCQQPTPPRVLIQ

B1: WT-hTSH (wild-type recombinant human thyroid stimulating hormone) (ligand)
chain 1: not shown
chain 2: FCIPTEYTMHIERRECAYCLTINTTICAGYCMTRDINGKLFLPKYALSQDVCTYRDFIYRTVEIPGCPLHVAPYFSYPVALSCKCGKCNTDYSDCIHEAIKTNYCTKPQKSY
As for B1, in assay [1], the “cAMP stimulation in JP09 cells, EC50” value is 6.7 ng/mL and the “cAMP stimulation in JP09 cells, relative potency (WT=1)” value is 1 fold (WT=1).

B2: WT-hCG (wild-type recombinant human chorionic gonadotropin) (ligand)
chain 1: not shown
chain 2: SKEPLRPRCRPINATLAVEKEGCPVCITVNTTICAGYCPTMTRVLQGVLPALPQVVCNYRDVRFESIRLPGCPRGVNPVVSYAVALSCQCALCRRSTTDCGGPKDHPLTCDDPRFQDSSSSKAPPPSLPSPSRLPGPSDTPILPQ
Turning to B2, the “Progesterone synthesis in MA 10 cells, EC50” value in assay [2] was 6.9 ng/mL.
